How the values were obtained:
[1] = target: native AdcAII of Streptococcus pneumoniae D39 (Streptococcus pneumoniae D39 (endogenous in D39 membranes)); assay: co-IP; S. pneumoniae D39 membranes solubilised in 2% Triton X-100, not cross-linked (IP); polyclonal antibody against AdcAII and protein A sepharose; 50 mM HEPES, 150 mM NaCl, pH 8, washes with 2% Triton X-100; immunoblot, signals quantified with Image J
[2] = target: native AdcAII of Streptococcus pneumoniae D39 (Streptococcus pneumoniae D39 (endogenous in D39 membranes)); assay: cross-linking + co-IP; S. pneumoniae D39 membrane preparations incubated with the thiol-cleavable cross-linker DTSSP (0.8 mM, 1 h) before the immuno-precipitation (x-IP); polyclonal antibody against AdcAII and protein A sepharose; immunoblot, signals quantified with Image J

## native PhtD (polyhistidine triad protein D) of Streptococcus pneumoniae D39 (natural protein)
[1]
  percentage of membrane-bound protein immuno-precipitated by AdcAII polyclonal antibodies: 1.7%
[2]
  percentage of membrane-bound protein immuno-precipitated by AdcAII polyclonal antibodies: 12%
